{"source": "paper PMC8718881", "about": "“Engineering of the Recombinant Expression and PEGylation Efficiency of the Therapeutic Enzyme Human Thymidine Phosphorylase” (Frontiers in Bioengineering and Biotechnology, 2021)", "proteins": {"B1": {"name": "HsTP^218 (human thymidine phosphorylase truncated before K34, C-terminal His6-tag) (enzyme)", "chain": "MGKQLPELIRMKRDGGRLSEADIRGFVAAVVNGSAQGAQIGAMLMAIRLRGMDLEETSVLTQALAQSGQQLEWPEAWRQQLVDKHSTGGVGDKVSLVLAPALAACGCKVPMISGRGLGHTGGTLDKLESIPGFNVIQSPEQMQVLLDQAGCCIVGQSEQLVPADGILYAARDVTATVDSLPLITASILSKKLVEGLSALVVDVKFGGAAVFPNQEQARELAKTLVGVGASLGLRVAAALTAMDKPLGRCVGHALEVEEALLCMDGAGPPDLRDLVTTLGGALLWLSGHAGTQAQGAARVAAALDDGSALGRFERMLAAQGVDPGLARALCSGSPAERRQLLPRAREQEELLAPADGTVELVRALPLALVLHELGAGRSRAGEPLRLGVGAELLVDVGQRLRRGTPWLRVHRDGPALSGPQSRALQEALVLSDRAPFAAPSPFAELVLPPQQ", "notes": "starting methionine and a glycine scar residue from cloning with the NcoI site; they precede K34 (M1-G2-K3-Q4); human thymidine phosphorylase (HsTP, TYMP), lacking the first thirty-three residues of the full-length protein; starts at K34, full-length numbering of UniProt P19971; Codon-optimized synthetic gene in pET28a; No cleavage of the His6-tag is described; also called expression-optimized …"}}, "target": "the molecule itself", "assay": "SEC; analytical SEC; purified protein about 2 mg/ml in PBS; TSKgel G4000SWxl; mobile phase 90% phosphate buffer (50 mM sodium phosphate, 200 mM NaCl, pH 7.2) and 10% ethanol; BioRad gel filtration standard as markers"}
{"protein": "B1", "values": [{"measurement": "stoichiometry N", "result": 2}]}
